Data: PMC4838544 (Gene, 2016)

Molecular target: T1, E. coli topoisomerase I with a N-terminus 6x-His tag (E. coli, UniProt P06612 1-865)
T1 sequence (looked up): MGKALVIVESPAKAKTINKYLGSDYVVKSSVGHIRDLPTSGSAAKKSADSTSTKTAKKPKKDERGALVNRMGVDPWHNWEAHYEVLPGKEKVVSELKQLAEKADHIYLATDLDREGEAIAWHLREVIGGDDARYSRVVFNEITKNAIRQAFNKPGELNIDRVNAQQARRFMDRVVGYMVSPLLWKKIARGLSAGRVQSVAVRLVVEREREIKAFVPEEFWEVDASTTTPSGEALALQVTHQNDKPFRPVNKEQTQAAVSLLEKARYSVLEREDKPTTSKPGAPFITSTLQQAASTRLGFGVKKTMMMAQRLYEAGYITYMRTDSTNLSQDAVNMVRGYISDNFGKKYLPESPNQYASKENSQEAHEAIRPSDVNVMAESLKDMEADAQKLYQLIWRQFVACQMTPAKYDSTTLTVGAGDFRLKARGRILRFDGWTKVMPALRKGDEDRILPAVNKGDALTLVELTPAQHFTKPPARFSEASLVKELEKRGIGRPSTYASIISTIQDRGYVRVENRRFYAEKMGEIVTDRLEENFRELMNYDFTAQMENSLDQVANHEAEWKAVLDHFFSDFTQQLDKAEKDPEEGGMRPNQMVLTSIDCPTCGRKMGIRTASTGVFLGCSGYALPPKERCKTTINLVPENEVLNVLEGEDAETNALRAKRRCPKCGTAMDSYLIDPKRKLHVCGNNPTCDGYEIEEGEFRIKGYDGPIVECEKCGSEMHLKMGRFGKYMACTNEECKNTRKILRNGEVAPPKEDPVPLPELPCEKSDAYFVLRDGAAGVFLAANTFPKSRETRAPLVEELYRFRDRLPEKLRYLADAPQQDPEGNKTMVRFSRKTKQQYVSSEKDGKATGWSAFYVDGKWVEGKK
Assay: pull-down

B1: Purified E. coli RecA (natural protein)
chain: AIDENKQKALAAALGQIEKQFGKGSIMRLGEDRSMDVETISTGSLSLDIALGAGGLPMGRIVEIYGPESSGKTTLTLQVIAAAQREGKTCAFIDAEHALDPIYARKLGVDIDNLLCSQPDTGEQALEICDALARSGAVDVIVVDSVAALTPKAEIEGEIGDSHMGLAARMMSQAMRKLAGNLKQSNTLLIFINQIRMKIGVMFGNPETTTGGNALKFYASVRLDIRRIGAVKEGENVVGSETRVKVVKNKIAAPFKQAEFQILYGEGINFYGELVDLGVKEKLIEKAGAWYSYKGEKIGQGKANATAWLKDNPETAKEIEKKVRELLLSNPNSTPDFSVDDSEGVAETNEDF
B1: binds.
